*1 amine or outer side, *2 acyl side, *3 side chain or, on linkers, in order; H or OH if unused. Where no end group is shown, it is not given here. Side-chain parts run from the residue outwards. [ ]: non-standard residue; d: D form. The star is where a group is joined. code 2xAEEA = O=C(COCCOCCN[*:1])NCCOCCOCC(=O)[*:2]; C20 diacid = O=C(O)CCCCCCCCCCCCCCCCCCC(=O)*; γGlu = O=C(O)[C@H](CCC(=O)[*:2])N[*:1]; Desaminohistidyl = O=C(CCc1c[nH]cn1)*; Trx = NC[C@H]1CC[C@H](C(=O)O)CC1; code LysOEG = not defined here; Lys(Bis) = not defined here; AEEA = NCCOCCOCC(=O)O; Aib = CC(C)(N)C(=O)O
B1: [Aib8,Glu22,Arg26,Arg34]-GLP-1-(7-37)-peptidyl-Ser-N{Epsilon}[(2S)-2,6-bis[[2-[2-[2[[2-[2-[2-[[(4S)-4-carboxy-4-[[4-[(19-carboxynonadecanoylamino)methyl]cyclohe … (peptide)
peptide: H[Aib]EGTFTSDVSSYLEEQAAREFIAWLVRGRGSK([Lys(Bis)-code 2xAEEA-AEEA-γGlu-Trx-C20 diacid])
modifications: reading uncertain; also: printed as [Aib8,Glu22,Arg26,Arg34]-GLP-1-(7-37)-peptidyl-Ser-N{Epsilon}[(2S)-2,6-bis[[2-[2-[2[[2-[2-[2-[[(4S)-4-carboxy-4-[[4-[(19-carboxynonadecanoylamino)methyl]cyclohexanecarbonyl]amino]butanoyl]amino]ethoxy]ethoxy]acetyl]amino]ethoxy]ethoxy]acetyl]amino]hexanoyl]Lys
notes: Side chain read from the name: eps-Lys(Bis) branched linker, each leg C20 diacid-Trx-gGlu-2xOEG
B2: [Aib8,Glu22,Arg26,Arg34]-GLP-1-(7-37)-peptidyl-Gly-Gly-Ser-N{Epsilon}[(2S)-2,6-bis[[2-[2-[2-[[2-[2-[2-[[(4S)-4-carboxy-4-[[4-[(19-carboxynonadecanoylamino)methy … (peptide)
peptide: H[Aib]EGTFTSDVSSYLEEQAAREFIAWLVRGRGGGSK([code LysOEG-AEEA-γGlu-Trx-C20 diacid)(OEG-AEEA-γGlu-Trx-C20 diacid])
modifications: reading uncertain; also: printed as [Aib8,Glu22,Arg26,Arg34]-GLP-1-(7-37)-peptidyl-Gly-Gly-Ser-N{Epsilon}[(2S)-2,6-bis[[2-[2-[2-[[2-[2-[2-[[(4S)-4-carboxy-4-[[4-[(19-carboxynonadecanoylamino)methyl]cyclohexanecarbonyl]amino]butanoyl]amino]ethoxy]ethoxy]acetyl]amino]ethoxy]ethoxy]acetyl]amino]hexanoyl]Lys
notes: as for B1
B3: [Aib8,Glu22,Arg26,Arg34]-GLP-1-(7-37)-peptidyl-Gly-Ser-N{Epsilon}[(2S)-2,6-bis[[2-[2-[2-[[2-[2-[2-[[(4S)-4-carboxy-4-[[4-[(19-carboxynonadecanoylamino)methyl]cy … (peptide)
peptide: H[Aib]EGTFTSDVSSYLEEQAAREFIAWLVRGRGGSK([code LysOEG-AEEA-γGlu-Trx-C20 diacid)(OEG-AEEA-γGlu-Trx-C20 diacid])
modifications: reading uncertain; also: printed as [Aib8,Glu22,Arg26,Arg34]-GLP-1-(7-37)-peptidyl-Gly-Ser-N{Epsilon}[(2S)-2,6-bis[[2-[2-[2-[[2-[2-[2-[[(4S)-4-carboxy-4-[[4-[(19-carboxynonadecanoylamino)methyl]cyclohexanecarbonyl]amino]butanoyl]amino]ethoxy]ethoxy]acetyl]amino]ethoxy]ethoxy]acetyl]amino]hexanoyl]Lys
notes: as for B1
B4: [Aib8,Glu22,Arg26,Arg34]-GLP-1-(7-37)-peptidyl-Ser-Ser-Gly-Ala-Pro-N{Epsilon}[(2S)-2,6-bis[[2-[2-[2-[[2-[2-[2-[[(4S)-4-carboxy-4-[[4-[(19-carboxynonadecanoylami … (peptide)
peptide: H[Aib]EGTFTSDVSSYLEEQAAREFIAWLVRGRGSSGAPK([Lys(Bis)-code 2xAEEA-AEEA-γGlu-Trx-C20 diacid])
modifications: reading uncertain
notes: as for B1
B5: [Aib8,Glu22,Arg26,Arg34]-GLP-1-(7-37)-peptidyl-Ser-Ser-Ala-Glu-Gly-N{Epsilon}[(2S)-2,6-bis[[2-[2-[2-[[2-[2-[2-[[(4S)-4-carboxy-4-[[4-[(19-carboxynonadecanoylami … (peptide)
peptide: H[Aib]EGTFTSDVSSYLEEQAAREFIAWLVRGRGSSAEGK([Lys(Bis)-code 2xAEEA-AEEA-γGlu-Trx-C20 diacid])
modifications: reading uncertain
notes: as for B1
B6: [Aib8,Glu22,Arg26,Arg34]-GLP-1-(7-37)-peptidyl-Ser-Ser-Pro-Ala-Ala-N{Epsilon}[(2S)-2,6-bis[[2-[2-[2-[[2-[2-[2-[[(4S)-4-carboxy-4-[[4-[(19-carboxynonadecanoylami … (peptide)
peptide: H[Aib]EGTFTSDVSSYLEEQAAREFIAWLVRGRGSSPAAK([Lys(Bis)-code 2xAEEA-AEEA-γGlu-Trx-C20 diacid])
modifications: reading uncertain
notes: as for B1
B7: [Aib8,Glu22,Arg26,Arg34]-GLP-1-(7-37)-peptidyl-Ser-Ser-Glu-Ala-Glu-N{Epsilon}[(2S)-2,6-bis[[2-[2-[2-[[2-[2-[2-[[(4S)-4-carboxy-4-[[4-[(19-carboxynonadecanoylami … (peptide)
peptide: H[Aib]EGTFTSDVSSYLEEQAAREFIAWLVRGRGSSEAEK([Lys(Bis)-code 2xAEEA-AEEA-γGlu-Trx-C20 diacid])
modifications: reading uncertain
notes: as for B1
B8: N{Alpha}([Aib8,Glu22,Arg26,Arg34]-GLP-1-(7-37)-peptidyl)-N{Epsilon}[(2S)-2,6-bis[[2-[2-[2-[[2-[2-[2-[[(4S)-4-carboxy-4-[[4-[(19-carboxynonadecanoylamino)methyl] … (peptide)
peptide: H[Aib]EGTFTSDVSSYLEEQAAREFIAWLVRGRGK([code LysOEG-AEEA-γGlu-Trx-C20 diacid)(OEG-AEEA-γGlu-Trx-C20 diacid])
modifications: reading uncertain; also: printed as N{Alpha}([Aib8,Glu22,Arg26,Arg34]-GLP-1-(7-37)-peptidyl)-N{Epsilon}[(2S)-2,6-bis[[2-[2-[2-[[2-[2-[2-[[(4S)-4-carboxy-4-[[4-[(19-carboxynonadecanoylamino)methyl]cyclohexanecarbonyl]amino]butanoyl]amino]ethoxy]ethoxy]acetyl]amino]ethoxy]ethoxy]acetyl]amino]hexanoyl]Lys
notes: as for B1
B9: N{Alpha}([Aib8,Glu22,Arg26,Arg34,Pro37]-GLP-1-(7-37)-peptidyl)-N{Epsilon}[(2S)-2,6-bis[[2-[2-[2-[[2-[2-[2-[[2-[2-[2-[[2-[2-[2-[[2-[2-[2-[[2-[2-[2-[[(4S)-4-carbo … (peptide)
peptide: H[Aib]EGTFTSDVSSYLEEQAAREFIAWLVRGRPK([code LysOEG-AEEA-AEEA-AEEA-AEEA-AEEA-γGlu-Trx-C20 diacid)(OEG-AEEA-AEEA-AEEA-AEEA-AEEA-γGlu-Trx-C20 diacid])
modifications: reading uncertain
notes: Side chain read from the name: eps-Lys(Bis) branched linker, each leg C20 diacid-Trx-gGlu-6xOEG
B10: [Aib8,Glu22,Arg26,Arg34]-GLP-1-(7-37)-peptidyl-Ala-Glu-Ala-Pro-N{Epsilon}[(2S)-2,6-bis[[2-[2-[2-[[2-[2-[2-[[(4S)-4-carboxy-4-[[4-[(19-carboxynonadecanoylamino)m … (peptide)
peptide: H[Aib]EGTFTSDVSSYLEEQAAREFIAWLVRGRGAEAPK([code LysOEG-AEEA-γGlu-Trx-C20 diacid)(OEG-AEEA-γGlu-Trx-C20 diacid])
modifications: reading uncertain
notes: as for B1
B11: N{Alpha}([Aib8,Glu22,Arg26,Arg34]-GLP-1-(7-37)-peptidyl)-N{Epsilon}[(2S)-2,6-bis[[2-[2-[2-[[2-[2-[2-[[(4S)-4-carboxy-4-(19-carboxynonadecanoylamino)butanoyl]ami … (peptide)
peptide: H[Aib]EGTFTSDVSSYLEEQAAREFIAWLVRGRGK([code LysOEG-AEEA-γGlu-C20 diacid)(OEG-AEEA-γGlu-C20 diacid])
modifications: reading uncertain; also: printed as N{Alpha}([Aib8,Glu22,Arg26,Arg34]-GLP-1-(7-37)-peptidyl)-N{Epsilon}[(2S)-2,6-bis[[2-[2-[2-[[2-[2-[2-[[(4S)-4-carboxy-4-(19-carboxynonadecanoylamino)butanoyl]amino]ethoxy]ethoxy]acetyl]amino]ethoxy]ethoxy]acetyl]amino]hexanoyl]Lys
notes: Side chain read from the name: eps-Lys(Bis) branched linker, each leg C20 diacid-gGlu-2xOEG
B12: [Aib8,Glu22,Arg26,Arg34]-GLP-1-(7-37)-peptidyl-Glu-Pro-Pro-Gly-N{Epsilon}[(2S)-2,6-bis[[2-[2-[2-[[2-[2-[2-[[(4S)-4-carboxy-4-[[4-[(19-carboxynonadecanoylamino)m … (peptide)
peptide: H[Aib]EGTFTSDVSSYLEEQAAREFIAWLVRGRGEPPGK([code LysOEG-AEEA-γGlu-Trx-C20 diacid)(OEG-AEEA-γGlu-Trx-C20 diacid])
modifications: reading uncertain
notes: as for B1
B13: [Aib8,Glu22,Arg26,Arg34]-GLP-1-(7-37)-peptidyl-Pro-Ala-Glu-Glu-N{Epsilon}[(2S)-2,6-bis[[2-[2-[2-[[2-[2-[2-[[(4S)-4-carboxy-4-[[4-[(19-carboxynonadecanoylamino)m … (peptide)
peptide: H[Aib]EGTFTSDVSSYLEEQAAREFIAWLVRGRGPAEEK([Lys(Bis)-code 2xAEEA-AEEA-γGlu-Trx-C20 diacid])
modifications: reading uncertain
notes: as for B1
B14: [Imp7,Aib8,Glu22,Arg26,Arg34]-GLP-1-(7-37)-peptidyl-Gly-N{Epsilon}[(2S)-2,6-bis[[2-[2-[2-[[2-[2-[2-[[2-[2-[2-[[2-[2-[2-[[(4S)-4-carboxy-4-[[4-[(19-carboxynonade … (peptide)
peptide: [Desaminohistidyl][Aib]EGTFTSDVSSYLEEQAAREFIAWLVRGRGGK([Lys(Bis)-code 2xAEEA-AEEA-AEEA-AEEA-γGlu-Trx-C20 diacid])
modifications: reading uncertain; also: printed as [Imp7,Aib8,Glu22,Arg26,Arg34]-GLP-1-(7-37)-peptidyl-Gly-N{Epsilon}[(2S)-2,6-bis[[2-[2-[2-[[2-[2-[2-[[2-[2-[2-[[2-[2-[2-[[(4S)-4-carboxy-4-[[4-[(19-carboxynonadecanoylamino)methyl]cyclohexanecarbonyl]amino]butanoyl]amino]ethoxy]ethoxy]acetyl]amino]ethoxy]ethoxy]acetyl]amino]ethoxy]ethoxy]acetyl]amino]ethoxy]ethoxy]acetyl]amino]hexanoyl]Lys
notes: Side chain read from the name: eps-Lys(Bis) branched linker, each leg C20 diacid-Trx-gGlu-4xOEG
B15: N{Alpha}([Aib8,Glu22,Arg26,Arg34]-GLP-1-(7-37)-peptidyl)-N{Epsilon}[(2S)-2,6-bis[[2-[2-[2-[[2-[2-[2-[[(4S)-4-carboxy-4-[[1-(19-carboxynonadecanoyl)piperidine-4- … (peptide)
peptide: H[Aib]EGTFTSDVSSYLEEQAAREFIAWLVRGRGK
modifications: not fully specified (residue 32); printed as N{Alpha}([Aib8,Glu22,Arg26,Arg34]-GLP-1-(7-37)-peptidyl)-N{Epsilon}[(2S)-2,6-bis[[2-[2-[2-[[2-[2-[2-[[(4S)-4-carboxy-4-[[1-(19-carboxynonadecanoyl)piperidine-4-carbonyl]amino]butanoyl]amino]ethoxy]ethoxy]acetyl]amino]ethoxy]ethoxy]acetyl]amino]hexanoyl]Lys
notes: Side chain read from the name: eps-Lys(Bis) branched linker, each leg C20 diacid-Inp-gGlu-2xOEG
B16: [Aib8,Glu22,Arg26,Arg34]-GLP-1-(7-37)-peptidyl-Gly-Gly-Gly-Ser-N{Epsilon}[(2S)-2,6-bis[[2-[2-[2-[[2-[2-[2-[[(4S)-4-carboxy-4-[[4-[(19-carboxynonadecanoylamino)m … (peptide)
peptide: H[Aib]EGTFTSDVSSYLEEQAAREFIAWLVRGRGGGGSK([code LysOEG-AEEA-γGlu-Trx-C20 diacid)(OEG-AEEA-γGlu-Trx-C20 diacid])
modifications: reading uncertain
notes: as for B1

Key:
[1] = target: T1, human GLP-1 receptor (human, UniProt P43220 24-463); assay: cell-based or functional assay
[2] = target: T1, human GLP-1 receptor; assay: SPA competition vs 125I-GLP-1(7-36)NH2, hGLP-1R BHK membranes, low HSA
Experimental: (§1) For the receptor binding assay in the presence of low HSA (0.005%) 50 μl of the assay buffer was added to each well of an assay plate. […] For the receptor binding assay in the presence of high HSA (2%) 50 μl of the 8% albumin stock was added to each well of an assay plate. […] Cell membrane aliquots were thawed and diluted to their working concentration. Fifty μl were added to each well in the assay plate. […] WGA SPA beads were suspended in assay buffer at 20 mg/ml. The suspension was diluted to 10 mg/ml in assay buffer just prior to addition to the assay plate. Fifty μl were added to each well in the assay plate. […] A 25 μl aliquot was reserved for measuring total counts/well. […] The assay plate was incubated for 2 h at 30° C. […] The assay plate was centrifuged for 10 min. […] The assay plate was read in a Packard TopCount NXT instrument.

[3] = target: T1, human GLP-1 receptor; assay: SPA competition vs 125I-GLP-1(7-36)NH2, hGLP-1R BHK membranes, high HSA (2.0%)
Experimental: as §1

Binder	EC50 (pM), in vitro potency, CRE luciferase reporter gene assay in BHK cells expressing the human GLP-1 receptor [1]	IC50 [2]	IC50 [3]
B1	44 pM	0.61 nM	83 nM
B2	87 pM	1.93 nM	59 nM
B3	51 pM	0.74 nM	25 nM
B4	99 pM	0.99 nM	28 nM
B5	12 pM	3.2 nM	63 nM
B6	22 pM	4.8 nM	51 nM
B7	19 pM	3.1 nM	85 nM
B8	70 pM	0.9 nM	78 nM
B9	12 pM	0.57 nM	84 nM
B10	13 pM	1.7 nM	27 nM
B11	25 pM	0.45 nM	64 nM
B12	15 pM	2.9 nM	50 nM
B13	14 pM	2.9 nM	68 nM
B14	16 pM	0.91 nM	54 nM
B15	55 pM	0.76 nM	68 nM
B16	94 pM	1.64 nM	175 nM
